Some targets named below: McjB M108T (UniProt Q9X2V8); McjC S440Y (UniProt Q9X2V9); McjC K337E (UniProt Q9X2V9).
In the next experiment the target is T1, McjB (UniProt Q9X2V8).
T1 sequence: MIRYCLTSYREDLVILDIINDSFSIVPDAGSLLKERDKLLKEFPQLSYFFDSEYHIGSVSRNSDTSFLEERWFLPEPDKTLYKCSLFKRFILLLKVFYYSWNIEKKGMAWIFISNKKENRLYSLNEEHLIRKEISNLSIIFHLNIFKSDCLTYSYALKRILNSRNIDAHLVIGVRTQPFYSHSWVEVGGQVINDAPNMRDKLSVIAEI

The target in a further experiment is T2, McjC (UniProt Q9X2V9).
T2 sequence: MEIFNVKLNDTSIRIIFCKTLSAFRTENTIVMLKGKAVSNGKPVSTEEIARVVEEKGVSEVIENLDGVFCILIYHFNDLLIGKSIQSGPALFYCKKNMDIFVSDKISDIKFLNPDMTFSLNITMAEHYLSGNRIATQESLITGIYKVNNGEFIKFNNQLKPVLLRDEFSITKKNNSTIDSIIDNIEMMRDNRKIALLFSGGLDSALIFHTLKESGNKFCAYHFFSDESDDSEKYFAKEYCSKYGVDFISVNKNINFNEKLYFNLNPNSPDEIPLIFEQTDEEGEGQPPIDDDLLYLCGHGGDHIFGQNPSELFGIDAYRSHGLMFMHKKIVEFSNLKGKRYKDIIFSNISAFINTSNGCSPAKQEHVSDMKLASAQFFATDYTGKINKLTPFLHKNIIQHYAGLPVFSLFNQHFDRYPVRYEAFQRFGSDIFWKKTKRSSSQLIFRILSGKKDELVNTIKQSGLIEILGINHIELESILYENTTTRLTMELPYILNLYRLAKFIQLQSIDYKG

In the experiment with McjB, McjA T-2M (peptide) returned a MccJ25 production yield relative to WT (HPLC peak area of E. coli culture extract) of 1%. Moreover, the MccJ25 production yield relative to WT (HPLC peak area of E. coli culture extract; synthetic rescue pair TM) with McjB M108T is 5.4%.
Take Microcin J25 precursor peptide McjA: the MccJ25 production yield relative to WT (HPLC peak area of E. coli culture extract) turned out to be 2.4% in the experiment with McjC S440Y and 8.1% in the experiment with McjC K337E.
In the experiment with McjC, “Split McjB S80/81 (B1 1-80 and B2 81-208 as separate proteins) (from UniProt Q9X2V8 1-80; Q9X2V8 81-208) (complex)” registered a MccJ25 production yield relative to WT (HPLC peak area of E. coli culture extract) of 41%.

B1: McjB circular permutant CP80/81 (enzyme)
chain: LYKCSLFKRFILLLKVFYYSWNIEKKGMAWIFISNKKENRLYSLNEEHLIRKEISNLSIIFHLNIFKSDCLTYSYALKRILNSRNIDAHLVIGVRTQPFYSHSWVEVGGQVINDAPNMRDKLSVIAEIGGSSGGMIRYCLTSYREDLVILDIINDSFSIVPDAGSLLKERDKLLKEFPQLSYFFDSEYHIGSVSRNSDTSFLEERWFLPEPDKT
In the experiment with McjC, B1 returned a MccJ25 production yield relative to WT (HPLC peak area of E. coli culture extract) of 4.4%.

B2: McjB circular permutant CP60/61 (enzyme)
chain: RNSDTSFLEERWFLPEPDKTLYKCSLFKRFILLLKVFYYSWNIEKKGMAWIFISNKKENRLYSLNEEHLIRKEISNLSIIFHLNIFKSDCLTYSYALKRILNSRNIDAHLVIGVRTQPFYSHSWVEVGGQVINDAPNMRDKLSVIAEIGGSSGGMIRYCLTSYREDLVILDIINDSFSIVPDAGSLLKERDKLLKEFPQLSYFFDSEYHIGSVS
As to B2, the MccJ25 production yield relative to WT (HPLC peak area of E. coli culture extract) in the experiment with McjC is 0.4%.

B3: McjB with a C-terminal MBP fusion (enzyme)
chain: MIRYCLTSYREDLVILDIINDSFSIVPDAGSLLKERDKLLKEFPQLSYFFDSEYHIGSVSRNSDTSFLEERWFLPEPDKTLYKCSLFKRFILLLKVFYYSWNIEKKGMAWIFISNKKENRLYSLNEEHLIRKEISNLSIIFHLNIFKSDCLTYSYALKRILNSRNIDAHLVIGVRTQPFYSHSWVEVGGQVINDAPNMRDKLSVIAEI
B3 gave a MccJ25 production yield relative to WT (HPLC peak area of E. coli culture extract; McjB-MBP in an otherwise native gene cluster) with McjC of 61%.

B4: McjB F67R (enzyme)
chain: MIRYCLTSYREDLVILDIINDSFSIVPDAGSLLKERDKLLKEFPQLSYFFDSEYHIGSVSRNSDTSRLEERWFLPEPDKTLYKCSLFKRFILLLKVFYYSWNIEKKGMAWIFISNKKENRLYSLNEEHLIRKEISNLSIIFHLNIFKSDCLTYSYALKRILNSRNIDAHLVIGVRTQPFYSHSWVEVGGQVINDAPNMRDKLSVIAEI
For the molecule B4, the MccJ25 production yield relative to WT (HPLC peak area of E. coli culture extract) in the experiment with McjC was found to be 0.6%.

B5: McjC with a C-terminal MBP fusion (enzyme)
chain: MEIFNVKLNDTSIRIIFCKTLSAFRTENTIVMLKGKAVSNGKPVSTEEIARVVEEKGVSEVIENLDGVFCILIYHFNDLLIGKSIQSGPALFYCKKNMDIFVSDKISDIKFLNPDMTFSLNITMAEHYLSGNRIATQESLITGIYKVNNGEFIKFNNQLKPVLLRDEFSITKKNNSTIDSIIDNIEMMRDNRKIALLFSGGLDSALIFHTLKESGNKFCAYHFFSDESDDSEKYFAKEYCSKYGVDFISVNKNINFNEKLYFNLNPNSPDEIPLIFEQTDEEGEGQPPIDDDLLYLCGHGGDHIFGQNPSELFGIDAYRSHGLMFMHKKIVEFSNLKGKRYKDIIFSNISAFINTSNGCSPAKQEHVSDMKLASAQFFATDYTGKINKLTPFLHKNIIQHYAGLPVFSLFNQHFDRYPVRYEAFQRFGSDIFWKKTKRSSSQLIFRILSGKKDELVNTIKQSGLIEILGINHIELESILYENTTTRLTMELPYILNLYRLAKFIQLQSIDYKG
B5: the MccJ25 production yield relative to WT (HPLC peak area of E. coli culture extract; McjC-MBP in an otherwise native gene cluster) with McjB was determined as 86%.

The values are drawn from paper PMC11420955.
